{"source": "patent US20240360208A1", "about": "(Hoffmann-La Roche, published 2024)", "key": {"[1]": {"target": "T1, human CCL2 (MCP1) - P8A variant (human, UniProt P13500 24-99)", "T1 construct": "In-house point mutant that cannot dimerise; also called monomeric human CCL2; monomeric CCL2", "test": "SPR T200, 37 C", "description": "(§1) Anti-human Fc (GE Healthcare) was immobilized on each flow cells of a CM4 sensor chip using amine coupling kit (GE Healthcare) according to the recommended settings by the manufacturer. Antibodies and analytes were diluted into ACES pH 7.4 or pH 5.8 buffer (20 mM ACES, 150 mM NaCl, 1 mg/ml BSA, 0.05% Tween 20, 0.005% NaN3). […] Sensor surface was regenerated each cycle with 3M MgCl2."}, "[2]": {"target": "T1, human CCL2 (MCP1) - P8A variant", "test": "SPR T200, 37 C, anti-human Fc capture, 1:1 model, pH 5.8", "description": "as §1"}, "[3]": {"target": "T1, human CCL2 (MCP1) - P8A variant", "test": "SPR T200, 37 C, anti-human Fc capture, 1:1 model, pH 7.4", "description": "as §1"}, "[4]": {"target": "T1, human CCL2 (MCP1) - P8A variant", "test": "SPR (Biacore T200), 37 °C, ACES pH 7.4; antibody captured on anti-human Fc, monomeric human CCL2 at 8 nM; response normalised to capture level", "description": "as §1"}, "[5]": {"target": "T2, human CCL8 (MCP2) - P8A variant (human, UniProt P80075 24-99)", "T2 construct": "Proline 8 of mature CCL8 (NP_005614.2) mutated to alanine; also called monomeric human CCL8; CCL8 P8A variant (monomer)", "T2 chain": "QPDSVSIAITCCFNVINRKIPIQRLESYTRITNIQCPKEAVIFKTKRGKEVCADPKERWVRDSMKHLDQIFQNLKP", "test": "SPR T200, 37 C, anti-human Fc capture, 1:1 model, pH 7.4; pH 7.4", "description": "as §1"}, "[6]": {"target": "T3, human FcγRIIa on CHO-K1 cells (clone 138) (human, UniProt P12318 34-317)", "T3 sequence (looked up)": "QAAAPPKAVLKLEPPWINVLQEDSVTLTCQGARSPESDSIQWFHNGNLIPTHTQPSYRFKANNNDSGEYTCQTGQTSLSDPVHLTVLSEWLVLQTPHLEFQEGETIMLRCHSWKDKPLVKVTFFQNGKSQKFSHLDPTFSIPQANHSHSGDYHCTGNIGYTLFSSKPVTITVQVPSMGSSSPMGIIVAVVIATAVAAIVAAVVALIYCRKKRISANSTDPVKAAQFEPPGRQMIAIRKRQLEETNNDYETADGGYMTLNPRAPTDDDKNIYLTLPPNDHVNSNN", "test": "cell-based or functional assay"}, "[7]": {"target": "T4, human FcγRIIb receptor on CHO-K1 cells (clone 223) (human, UniProt P31994 43-310)", "T4 sequence (looked up)": "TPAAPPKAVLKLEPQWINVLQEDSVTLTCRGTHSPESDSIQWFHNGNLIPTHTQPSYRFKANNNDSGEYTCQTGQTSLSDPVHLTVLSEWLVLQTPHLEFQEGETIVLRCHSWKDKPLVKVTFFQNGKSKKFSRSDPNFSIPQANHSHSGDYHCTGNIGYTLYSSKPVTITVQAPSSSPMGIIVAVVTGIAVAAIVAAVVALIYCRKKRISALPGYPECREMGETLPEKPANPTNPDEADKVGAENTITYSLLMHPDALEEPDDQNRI", "test": "cell-based or functional assay"}, "[8]": {"target": "human CCL2 (MCP1) - wild type (wt) (human, UniProt P13500 24-99)", "test": "cell-based or functional assay"}}, "data": [{"binder": "CKLO03 (IgG1 wild type) (bispecific antibody, V domains shown, CrossMab, IgG1 wild type with knobs-into-holes; also called CKLO3; 11K2H1503/11K2L1201//CNTO888H0695/CNTO888L0616) VH 1: QVQLVQSGAEVKKPGSSVKVSCKASGLTISHTYMHWVRQAPGQGLEWMGRIDPDNHNTKFDPKFQGRVTITADTSTSTAYMELSSLRSEDTAVYYCARGVFGFFDHWGQGTTVTVSS VL 1: DIQMTQSPSSLSASVGDRVTITCKATEDIYNRLAWYQQKPGKAPKLLIHGATSLEHGVPSRFSGSGSGTDYTLTISSLQPEDFATYYCQQFRSAPYTFGGGTKVEIK VH 2: QVQLVQSGAEVKKPGSSVKVSCKASGGTFSHYGISWVRQAPGQGLEWMGGVIPIFHTANYAQKFQGRVTITADESTSTAYMELSSLRSEDTAVYYCARYDAHYGELDFWGQGTLVTVSS VL 2: EIVLTQSPATLSLSPGERATLSCRASQHVSDAYLAWYQQKPGQAPRLLIYDASDRAEGVPARFSGSGSGTDFTLTISSLEPEDFAVYYCHQYIHLHSFTFGQGTKVEIK", "values": [{"measurement": "fold weaker KD at pH 5.8 than at pH 7.4", "setting": "[1]", "result": "> 1000", "unit": "fold"}, {"measurement": "Kd", "setting": "[2]", "result": 21700, "unit": "pM"}, {"measurement": "Kd", "setting": "[3]", "result": 6.85, "unit": "pM"}]}, {"binder": "CKLO04 (IgG1 wild type) (bispecific antibody, V domains shown, CrossMab, IgG1 wild type with knobs-into-holes; also called CKLO4; 11K2H1503/11K2L1201//CNTO888H0625/CNTO888L0616) VH 1: QVQLVQSGAEVKKPGSSVKVSCKASGLTISHTYMHWVRQAPGQGLEWMGRIDPDNHNTKFDPKFQGRVTITADTSTSTAYMELSSLRSEDTAVYYCARGVFGFFDHWGQGTTVTVSS VL 1: DIQMTQSPSSLSASVGDRVTITCKATEDIYNRLAWYQQKPGKAPKLLIHGATSLEHGVPSRFSGSGSGTDYTLTISSLQPEDFATYYCQQFRSAPYTFGGGTKVEIK VH 2: QVQLVQSGAEVKKPGSSVKVSCKASGGTFSHYGISWVRQAPGQGLEWMGGIIHIFHTANYAQKFQGRVTITADESTSTAYMELSSLRSEDTAVYYCARYDAHYGELDFWGQGTLVTVSS VL 2: EIVLTQSPATLSLSPGERATLSCRASQHVSDAYLAWYQQKPGQAPRLLIYDASDRAEGVPARFSGSGSGTDFTLTISSLEPEDFAVYYCHQYIHLHSFTFGQGTKVEIK", "values": [{"measurement": "binding result", "setting": "[4]", "result": "binds"}]}, {"binder": "CKLO01 (IgG1 wild type) (bispecific antibody, V domains shown, also called CKLO1; 11K2H1503/11K2L1338//CNTO888H0695/CNTO888L0616) VH 1: QVQLVQSGAEVKKPGSSVKVSCKASGLTISHTYMHWVRQAPGQGLEWMGRIDPDNHNTKFDPKFQGRVTITADTSTSTAYMELSSLRSEDTAVYYCARGVFGFFDHWGQGTTVTVSS VL 1: DIQMTQSPSSLSASVGDRVTITCKAFEDIYNRRAWYQQKPGKAPKLLIHGATSLEHGVPSRFSGSGSGTDYTLTISSLQPEDFATYYCQQFWSAPYTFGGGTKVEIK VH 2: QVQLVQSGAEVKKPGSSVKVSCKASGGTFSHYGISWVRQAPGQGLEWMGGVIPIFHTANYAQKFQGRVTITADESTSTAYMELSSLRSEDTAVYYCARYDAHYGELDFWGQGTLVTVSS VL 2: EIVLTQSPATLSLSPGERATLSCRASQHVSDAYLAWYQQKPGQAPRLLIYDASDRAEGVPARFSGSGSGTDFTLTISSLEPEDFAVYYCHQYIHLHSFTFGQGTKVEIK", "values": [{"measurement": "Kd", "setting": "[5]", "result": 23300, "unit": "pM"}]}, {"binder": "P1AF8142 (CKLO2-CB-SG1095) (bispecific antibody) chain 1: not shown chain 2: QVQLVQSGAEVKKPGSSVKVSCKASGLTISHTYMHWVRQAPGQGLEWMGRIDPDNHNTKFDPKFQGRVTITADTSTSTAYMELSSLRSEDTAVYYCARGVFGFFEHWGQGTTVTVSSASTKGPSVFPLAPSSKSTSGGTAALGCLVKDYFPEPVTVSWNSGALTSGVHTFPAVLQSSGLYSLSSVVTVPSSSLGTQTYICNVNHKPSNTKVDKKVEPKSCGGSGGGGSGGDKTHTCPPCPAPELWNGPSVFLFPPKPKDTLMISRTPEVTCVVVDVSDEDPEVKFNWYVDGVEVHNAKTKPREELYNSTYRVVSVLTVLHRDWLNGKEYKCKVSNTALPKPIEKTISKAKGQRREPQVYTLPPCRDELTKNQVSLWCLVKGFYPSDIAVEWESNGQPENNYKTTPPVLDSDGSFFLYSKLTVDKSRWQQGNVFSCSVMHEALHAHYTRKELSLSPGKGGSGGGGSGGDIQMTQSPSSLSASVGDRVTITCKAFEDIYNRRAWYQQKPGKAPKLLIHGATSLEHGVPSRFSGSGSGTDYTLTISSLQPEDFATYYCQQFWSAPYTFGGGTKVEIKRTVAAPSVFIFPPSDEQLKSGTASVVCLLNNFYPREAKVQWKVDNALQSGNSQESVTEQDSKDSTYSLSSTLTLSKADYEKHKVYACEVTHQGLSSPVTKSFNRGEC", "values": [{"measurement": "EC50 (read off the curve) of the depletion of CCL2 from the supernatant of FcγRIIa CHO cells", "setting": "[6]", "result": "~100", "unit": "pM"}, {"measurement": "Depletion level max (%) of CCL2 from the supernatant", "setting": "[7]", "result": 80, "unit": "%"}, {"measurement": "EC50 [nM] of CCL2 depletion", "setting": "[7]", "result": 0.13, "unit": "nM"}, {"measurement": "EC90 [nM] of CCL2 depletion", "setting": "[7]", "result": 0.5, "unit": "nM"}, {"measurement": "IC50, inhibition of THP-1 migration (chemotaxis assay)", "setting": "[8]", "result": 0.2, "unit": "µg/mL"}]}]}
